The values below are quoted from earlier work in publication PMC12669185.

In the data set the target is CCR2 (Homo sapiens) (UniProt P41597).
Sequence of UniProt P41597 (P41597 whole entry): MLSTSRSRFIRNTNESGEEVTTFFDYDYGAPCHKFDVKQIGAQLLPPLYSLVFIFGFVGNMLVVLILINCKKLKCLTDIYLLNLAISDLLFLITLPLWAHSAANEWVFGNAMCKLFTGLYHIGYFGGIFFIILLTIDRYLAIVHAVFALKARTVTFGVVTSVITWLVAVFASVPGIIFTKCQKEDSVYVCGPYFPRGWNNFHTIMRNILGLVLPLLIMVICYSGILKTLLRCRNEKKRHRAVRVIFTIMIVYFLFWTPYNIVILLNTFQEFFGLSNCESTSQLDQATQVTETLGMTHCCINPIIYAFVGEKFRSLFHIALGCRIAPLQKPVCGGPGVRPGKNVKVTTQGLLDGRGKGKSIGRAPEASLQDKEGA

A word on the Kd: it is a measure of binding affinity in units of concentration. For the substance CCL2 (from UniProt P13500), the Kd is 0.77 nM.
